Source: the DeepSol protein solubility set

Experiment: soluble on expression in E. coli; label from the status in PepcDB or PDB records

Sequence	soluble on expression in E. coli
MVSKIRTFGWVQNPGKFENLKRVVQVFDRNSKVHNEVKNIKIPTLVKESKIQKELVAIMNQHDLIYTYKELVGTGTSIRSEAPCDAIIQATIADQGNKKGYIDNWSSDGFLRWAHALGFIEYINKSDSFVITDVGLAYSKSADGSAIEKEILIEAISSYPPAIRILTLLEDGQHLTKFDLGKNLGFSGESGFTSLPEGILLDTLANAMPKDKGEIRNNWEGSSDKYARMIGGWLDKLGLVKQGKKEFIIPTLGKPDNKEFISHAFKITGEGLKVLRRAKGSTKFTRVPKRVYWEMLATNLTDKEYVRTRRALILEILIKAGSLKIEQIQDNLKKLGFDEVIETIENDIKGLINTGIFIEIKGRFYQLKDHILQFVIPNRLGKPDLVKSELEEKKSELRHKLKYVPHEYIELIEIARNSTQDRILEMKVMEFFMKVYGYRGKHLGGSRKPDGAIYTVGSPIDYGVIVDTKAYSGGYNLPIGQADEMQRYVEENQTRNKHINPNEWWKVYPSSVTEFKFLFVSGHFKGNYKAQLTRLNHITNCNGAVLSVEELLIGGEMIKAGTLTLEEVRRKFNNGEINF	soluble
SLRVYIYEYAVATGDEEFLAEGRAMLESLLRAFAKSGYETLTVAHPSVGVRWADEVLRDETQALECADLTLVIAPESDGLLESKVREYSRETEVIGPTPRAIRVAADKRKTEDALRDARSFQLPTREADVMVSKPADGAGSEGVRIGRGELSRELIPGSHHSLLCVSDGETVDVLGINDQFVAFAGRELVYLGGRTPSDHRELTRIARDIAEEVVERIPGLVGLFGVDLVMKGGEPYLIEVNPRPTTPTVAAALEHPEAVVRSLLEGPTGKVLRYRREYVYVKRGAEALVPEKFEVVEDFHGLRVYRG	soluble
MKGYIHVYTGNGKGKTTAALGLATRAACAGLKVFFGQFLKGRETSELKISEFLPNFEIVQYGTPEFIVGNPSEEQIKKAKSGLADAKERLVSEKYDVVVLDELCVAIHLGLFSKEEIEDLLNVKPENVELVITGRYAPEWLIEKADLVTEMKEVKHYYQKGVVARKGIEY	soluble
GSHMSYADSSRNAVLTNGGRTLRAECRNADGNWVTSELDLDTIIGNNDGHFQWGGQNFTETAEDIRFHPKEGAAEQPILRARLRDCNGEFHDRDVNLNRIQNVNGRLVFQ	soluble
MTTNNDFYFALLRISILQLLKAQGFDRARPSLVDVMTDLYAKFLSLLASEVSSIAQARCDQDDTIALQDITLALENLGIVKPTNVLDVYDENSELSSSRGMEKFKDWCIYSTQLTDARITALPTVELLQSEEKESDPLSAIPDYLNQLLQNKGAKQKLETKNRKTELIEDLINNNGLDDWIKLVIARQRINMIERASKKESQNVPALPHIAGYKSSILSRHHHTTITNEDRMPSAMTPRDEDALTEIQENPFVTSKLPIMRKENRLENITLSFEDEELESLGEVEGPNQKSQENNNEESFKENNKSLTESPHGDDRDISMFQFDSNVDTKWAEQEDMDSTFQRRTSLDYGGYF	not soluble
MGEPVIEAQISAGFDSDSGFRHAFSRLAGQPPSNLRGRELLKVDWLQTPIGVMLAVADLEHHHHHH	not soluble
MKPTDTSEKALEQLIVRHLAGISEHASVPPNAVQSPGAIYALGGYVLGRATDFNRDVALDTVQLLAFLQATQPDAVETLELAHEGIKRTQFLHRLQGEITKRGVVDVLRKGVSHGPVRVDLYRLLPTPGNTNAAEAFGRNIFSITRQVRYSHDSGNELDLVIFVNGLPVLTFELKNSLTKQTVADAIVQYQSTRSPQELLFQPGRCIAHFAVDDAEVYFCTELKGKASWFLPFNQGWNNGAGNPPNPNGLKTDYLWKQVLAKESLANIIESFAQVVEEQETDATTGRKKKKRKPVFPRFHQLRTVRALLRRTRSDGVGKRYLIQHSAGSGKSNTIAWLAHQLVELRSVADPLMPQFDSIIVITDRRALDTQIARTIKGYDHVASIFGHSDNAQELRDYLRRGRKIIVTTVQKFPFILEEIGDLSGRTFALLIDEAHSSQGGKTTARMHEALSGKTDEEAFEEDATQDAVNTEIEKRIQSRRMLSNASYFAFTATPKNRTLELFGEKTVVDDKVEFRSPEELTYTTKQAIQEGFILDVIAHYTTLDSFYQVAKTVENDPDFDKARALKKIRHYVESHDKAIRRKAEIMVDHFVAQVMGAKKIGGKARAMIVCNGIARAIDYWREVSDYLEQIKSPYKAIVAYSGEFEIGGEKKTEADLNDFPSKEIPDRLRQDPYRFLIVANKFVTGFDEPLLHTMYVDKKLAGVQAVQTLSRLNRAHPQKHDTFVLDFADNAEAVKKAFQDYYRATIQTGETDANKLHDLKADLDDKQIYSWPQVEDLVALYLSGADRDKLDPILDHCVEQYQANLDEDNQVEFKGKAKAFVRSYGFLAAILSYGHPAWEKLSIFLNFLIPKLPAPKEEDLSKGVLESIDIDSYRVEARAALKMAMDDTDATVEVAPVGGGGGKGEPDIDKLSNILKTFNDLFGNIDWKDADKIGKVIAEEIPVRVAQDKAYQNAQVNSDRQNAKLEHDKALNRVVLELLSDHTELFKQFSDNPNFKRWLTDMVFDVTYQQNPAHGVEDVRMRALDIVRDRFDAAVVWSQAVDMLLDRLAAGGRNSLGIADLALIEETSGLSVSHVLFPVLNLLSAHDVGILNREFVRVGSTDTPQTMSFDEVRLLAQKDPEGDDWAECLSIRWALQDAQR	not soluble
MKQIYFGGGCFWGTQKYFDLIKGVQKTSVGYLNSNMKNPTYEQVCSGQTNAVEAVFVEYDENKVSLNELIDAFFKVIDPTIRNRQGNDIGTQYRTGVYWVDPQDEQLITQKFRELQANYPKPIVTENRAMENYFLAEEYHQDYLKKNPHGYCHIKFD	soluble
MGVNGAAGRSPGPKAVKPASVAIAVDYAMLTHEQAAVCAMRHERIDINPEVMGGKPVVRGTRIPVEMILRKLGAGLSTAEIIADHPRLTADDILAVQTFAADYLADQDVIFG	not soluble
MGSDKIHHHHHHMDIYRHAQVMMNAAQAAHDLVDHLSIQPRGVVKVSVPVDIAQNLLPKILPAFLKKYPEIRLQLIVSNRRVDVINEGIDIALRVRSKLDDDPSLVLRQFALIEQSLFASQAYLNEFGNIKSPDELSDHRILSLSEEHLDQQFILHGPDNQLKKVKVSPTIMGTNIYMLAQLASQNCGIALLPDTAAEDFVKSGQLVQILPDWKAAHGIFHAVYPSRRGLLPAVRVFIDYLVEHLSEHP	not soluble
MHHHHHHANASETNVGPMAPRVCVVGSVNMDLTFVVDALPRPGETVLAASLTRTPGGKGANQAVAAARAGAQVQFSGAFGDDPAAAQLRAHLRANAVGLDRTVTVPGPSGTAIIVVDASAENTVLVAPGANAHLTPVPSAVANCDVLLTQLEIPVATALAAARAAQSADAVVMVNASPAGQDRSSLQDLAAIADVVIANEHEANDWPSPPTHFVITLGVRGARYVGADGVFEVPAPTVTPVDTAGAGDVFAGVLAANWPRNPGSPAERLRALRRACAAGALATLVSGVGDCAPAAAAIDAALRANRHNGS	soluble
GSDEKRLHFGNGHLKLPGLRTYVDPHTYEDPTQTVHEFAKELDATNISIDKVVGAGEFGEVCSGRLKLPSKKEISVAIKTLKVGYTEKQRRDFLGEASIMGQFDHPNIIRLEGVVTKSKPVMIVTEYMENGSLDSFLRKHDAQFTVIQLVGMLRGIASGMKYLSDMGYVHRDLAARNILINSNLVCKVSDFGLSRVLEDDPEAAYTTRGGKIPIRWTSPEAIAYRKFTSASDVWSYGIVLWEVMSYGERPYWEMSNQDVIKAVDEGYRLPPPMDCPAALYQLMLDCWQKDRNNRPKFEQIVSILDKLIRNPGSLKIITSAAARPSNLLLDQSNVDITTFRTTGDWLNGVWTAHCKEIFTGVEYSSCDTIAKIS	soluble
MGSDKIHHHHHHMLIHQQYTRHGPDYRFGEQMTFLDVKQTFGFSHVRVGRWVTREESLIAANLVFDSLADLAFILHLPPLTLGLRQSLSLAFGHGGQKGVQAHYAPAARELALAKNAGAGALAHEFWHAFDHYVAPKAFQRVTGRFTCASDLWLADLPLIDHPLNQRLVEIFRVTLLSEDNLAPSDYVRRAIALDKRYGSQYFAKPTEMMARAFEACIESYQGIQNPYLVSGTRYSSLAKEGAYPDEPHRQRIFKALIAYFEPLGIALGKAG	not soluble
MSSANIPATQSALIFEKYGGPLEVRQVSVPQPQENELLVKIEYSGICHSDLHTWEGDFEYASICPLIGGHEGAGTVVTIGSKVKGWNIGDRAGIKLINANCLNCEYCKTGHEPLCDHIQNYGIDRHGTFQEYLTIRDIDAIKVSNDTNLAAAAPVLCGGVTAYKSLKATNVKPGQIVVLTGAGGGLGSFGIQYAKAMGMRVVAVDHISKEDHCRNLGAEWFVDAFDTPDIVAHIRKLTNGGAHGVVSFAAAKKPMEYALEYVRKRGTVVFVGLPKDGTIPLDTLSLICNEITVKGSIVGSRMDVDEAIDFITRGIVHVPIELVKLEDVPSVYQRMKDGKVTSRVVVDFSMR	not soluble
MNGGGKNVLNKNSVGSVSEVGPDSTQEETPRDVRLLHLLLASQSIHQYEDQVPLQLMDFAHRYTQGVLKDALVYNDYAGSGNSAGSGLGVEDIRLAIAARTQYQFKPTAPKELMLQLAAERNKKALPQVMGTWGVRLPPEKYCLTAKEWDLEDPKSM	not soluble
MGSDKIHHHHHHMTIRINADFSQRIVVQPGDYHWVESPMPGVQRMMLDRVGGETARATSIVRYEPFSEFSPHIHSGGEEFFVLEGVFSDEHQCYGKGSYVRNPIGSSHTPKIGKEGATIFVKLQQFDEKDTEQKVIDTQTQPWFQGLVGGLKVMPLHEFESEHVALVKWAPNTQFTAHQHWGGEEIFVLEGTFHDEHGRYPKGSWLRSPHLSRHSPFTKEEGALIYVKTGHL	not soluble
MSLIISELRHEHALRDLLRAAGMSRSTWYYNMNALKQGDRYAGLKENIRKIYHYHKGRYGYRRITLALRKQGLRINHKTVQRLMAELSLRSVIRAKKYRAWKGRTGEAAPNILSRNFGASKANEKWVTDVTEFPVQGKKLYLSSVLDLFNREVIAYSLSERPVMEMVNTMLDGAFPKLRPGDAPLLHSDQGWHYRMRSYQERLKAHGMTQSMSRKGNCLDNAVMENFFGTLKSECFYLREFRSVSALRKAVEDYIHYYNNERISLKLKGLSPVEYRTQALRAAEGHHHHHH	not soluble
MGSDKIHHHHHHMKIVHTADWHLGKILNGKQLLEDQKYILTQFKQHMEKEQPDLIVIAGDLYDTSYPSKEAIGLLEETIEYLNIELKIPIIMISGNHDGRERLNYGSKWFENNQLYIRTQLENIDDPIELSGVQFFTLPFATVSEVQNYFKDKQIETYQQALNECLEQMSSSIDNNKVNILIGHLTIEGGKTSDSERPLTIGTVESVDMHSFRLFDYVMLGHLHHPFSINNSFIKYSGSILQYSFSEVNQSKGYRVLDIENNQLLNETFVPLKPLRELEVIEGDYEDIIQERIKVKNKNNYFHFKLTNVSHITDPMMKLKQIYPNILALSNVVFDHSENFSHVEIKKQDDQTIIENFYKNMTDQHLSQVQSDKIKHLLSFILDREG	not soluble
MDWRHKAVCRDEDPELFFPVGNSGPALAQIADAKLVCNRCPVTTECLSWALNTGQDSGVWGGMSEDERRALKRRNARTKARTGV	not soluble
MPVKCPGEYQVDGKKVILDEDCFMQNPEDWDEKVAEWLARELEGIQKMTEEHWKLVKYLREYWETFGSCPPIKMVTKETGFSLEKIYQLFPSGPAHGACKVAGAPKPTGCV	soluble
MALVDQESCLRGFYSVFLRHCDVEPAIATFDGVRSPPDVVRLYPKPRYDYTLASAFLGTAVSGYITSRRDNAPNKNTGHRYVYTTSILIAVVTSVDTQHRSPSRCFMAMGESYFLQDEKCVFWLEHHHHHH	not soluble
